Experiment [1] has as its target IL-21 (species not stated in the assay) (Homo sapiens (Human), UniProt Q9HBE4 25-162, Biotinylated in the competition ELISA of paragraph 259 (sites not given); unlabelled in the other results.). As to the kind of experiment: cell-based or functional assay.
Experiment [2] addresses T1, recombinant cynomolgus monkey IL-21 (cynomolgus monkey (Macaca fascicularis), UniProt Q9HBE4 30-162 (human entry), limits assumed). Put plainly: cell-based or functional assay.
The target in experiment [3] is T2, recombinant human IL-21 (human, UniProt Q9HBE4 30-162, limits assumed). As to the kind of experiment: cell-based or functional assay.
T2 sequence (Q9HBE4 30-162 limits assumed, form in doubt): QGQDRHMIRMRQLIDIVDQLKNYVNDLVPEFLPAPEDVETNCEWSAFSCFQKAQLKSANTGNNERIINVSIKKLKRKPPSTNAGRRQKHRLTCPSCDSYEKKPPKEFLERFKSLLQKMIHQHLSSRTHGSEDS
The target in experiment [4] is T1, recombinant cynomolgus monkey IL-21. As to the kind of experiment: cell-based or functional assay. The source holds these as a separate data set.
Experiment [5] deals with T2, recombinant human IL-21. As to the kind of experiment: cell-based or functional assay. This is another data set of the same source.
For experiment [6], the target named is T1, recombinant cynomolgus monkey IL-21. Put plainly: cell-based or functional assay. This is another data set of the same source.
For experiment [7], the target named is T2, recombinant human IL-21. As to the kind of experiment: cell-based or functional assay. The source holds these as a separate data set.
In experiment [8] the target is T1, recombinant cynomolgus monkey IL-21. Put plainly: cell-based or functional assay. The source holds these as a separate data set.
The target of experiment [9] is T2, recombinant human IL-21. Put plainly: cell-based or functional assay. This is another data set of the same source.
The next experiment concerns the target T3, IL-7 (UniProt P13232 26-177).
T3 sequence (looked up): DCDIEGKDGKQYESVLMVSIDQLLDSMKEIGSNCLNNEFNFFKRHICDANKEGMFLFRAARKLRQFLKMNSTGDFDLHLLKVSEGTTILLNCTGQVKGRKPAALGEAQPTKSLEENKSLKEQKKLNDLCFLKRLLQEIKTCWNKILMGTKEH
As to the kind of experiment: ELISA on plate-coated cytokine (2 µg/ml). How it is done:
(§1) ELISA was used to test cross reactivity of lead clones. Cytokines tested include 11-2, IL-4, IL-7, IL-9, and IL-15. Maxisorp ELISA plate (NUNC) was coated with 2 μg/ml of different cytokines in PBS at 4° C. overnight. The plate was then blocked with 3% BSA in PBST (PBS+0.1% Tween) at room temperature for one hour. Purified lead clone IgGs were serially diluted in PBST+3% BSA and the mixture was then added to each ELISA plate well and further incubated at room temperature for half an hour. After washing, secondary antibody-HRP was added to each well for 1 hour. Wells were washed first with PBST and then with PBS and the TMB solution from Pierce was added to detect the secondary antibody. After 5′ the reaction was stopped by the addition of 1N sulfuric acid. The plates were then read in an ELISA reader at 450 nm to detect the binding.

A further experiment addresses IL-2 (UniProt P60568 21-153). Put plainly: ELISA on plate-coated cytokine (2 µg/ml). The procedure: as §1
On the technique in general: In an ELISA, binding on a coated surface is turned into a signal by an enzyme label.

In the next experiment the target is T4, IL-4 (UniProt P05112 25-153).
T4 sequence (looked up): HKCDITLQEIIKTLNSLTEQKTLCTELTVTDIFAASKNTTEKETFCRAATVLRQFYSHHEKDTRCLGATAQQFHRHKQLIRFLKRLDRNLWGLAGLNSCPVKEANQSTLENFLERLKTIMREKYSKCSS
As to the kind of experiment: ELISA on plate-coated cytokine (2 µg/ml). How it is done:
as §1

Experiment [10] addresses T2, recombinant human IL-21. Put plainly: method not stated for this clone (Table 2, column Kd hu).
A further experiment concerns the target IL-15 (UniProt P40933 49-162). Put plainly: ELISA on plate-coated cytokine (2 µg/ml). The procedure:
as §1

The Kd is the equilibrium constant for the complex coming apart.

T1 sequence (Q9HBE4 other isoform, or with tags, fused parts or gaps limits assumed): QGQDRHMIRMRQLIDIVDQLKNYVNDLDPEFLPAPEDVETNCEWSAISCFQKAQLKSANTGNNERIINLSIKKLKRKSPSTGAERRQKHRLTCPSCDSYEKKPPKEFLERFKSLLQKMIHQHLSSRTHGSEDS
IL-21 (species not stated in the assay), sequence (Q9HBE4 25-162 limits assumed): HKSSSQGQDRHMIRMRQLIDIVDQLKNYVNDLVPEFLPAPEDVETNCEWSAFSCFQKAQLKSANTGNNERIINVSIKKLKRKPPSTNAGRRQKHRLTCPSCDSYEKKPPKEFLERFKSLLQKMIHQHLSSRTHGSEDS
IL-2, sequence (P60568 21-153 limits assumed): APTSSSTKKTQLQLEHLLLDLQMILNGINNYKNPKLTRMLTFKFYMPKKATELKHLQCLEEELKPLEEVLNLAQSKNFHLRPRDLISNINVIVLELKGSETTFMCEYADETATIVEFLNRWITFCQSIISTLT
IL-15, sequence (P40933 49-162 limits assumed): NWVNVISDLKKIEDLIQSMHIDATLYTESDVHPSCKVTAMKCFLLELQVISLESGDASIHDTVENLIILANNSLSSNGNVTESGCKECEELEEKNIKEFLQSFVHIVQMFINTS

B1: 9F11-4 (antibody, IgG1, V domains shown)
VH: EVQLVESGGGLVQPGGSLRLSCAASGFTFSDAWMDWVRQAPGKGLEWVAEIRSEADNHPTYYAESVKGRFTISRDDSKNSLYLQMNSLKTEDTAVYYCTEYDYEGFVHWGQGTLVTVSS
VL: DIVMTQTPLSLSVTPGQPASISCRASKSVSTYGYSYMHWYLQKPGQPPQLLIYLASNLESGVPDRFSGSGSGTDFTLKISRVEAEDVGVYYCQHSRELPLTFGQGTKLEIK
As to B1, the “maximal inhibition in pSTAT3 assay” value in experiment [1] is 100%. Further, the “IC50 in pSTAT3 assay (human PBMCs, 20 pM IL-21)” value (shortened to “IC50 in pSTAT3 assay”) was found to be 52.2 pM in experiment [2] and 12.1 pM with recombinant human IL-21 [3].

B2: 9F11-6 (antibody, IgG1, V domains shown)
VH: EVQLVESGGGLVQPGGSLRLSCAASGFTFSDAWMDWVRQAPGKGLEWVAEIRSEADNHPTYYAESVKGRFTISRDDSKNSVYLQMNSLKTEDTAVYYCTEYDYEGFVHWGQGTLVTVSS
VL: DIVMTQTPLSLSVTPGQPASISCRASKSVSTYGYSYMHWYLQKPGQPPQLLIYLASNLESGVPDRFSGSGSGTDFTLKISRVEAEDVGVYYCQHSRELPLTFGQGTKLEIK
B2: the “maximal inhibition in pSTAT3 assay” value in [1] is 100%. Further, the “IC50 in pSTAT3 assay” value is 50.8 pM in [2] and 13.2 pM with recombinant human IL-21 [3].

B3: 9F11-11 (antibody, IgG1, V domains shown)
VH: EVQLVESGGGLVQPGGSLRLSCAASGFTFSDAWMDWVRQAPGKGLEWVAEIRSEADNHPTYYAESVKGRFTISRDDSKNSLYLQMNSLKTEDTAVYYCTEYDYEGFVHWGQGTLVTVSS
VL: DIVLTQTPLSLSVTPGQPASISCRASKSVSTYGYSYMHWYLQKPGQPPQLLIYLASNLESGVPDRFSGSGSGTDFTLKISRVEAEDVGVYYCQHSRELPLTFGQGTKLEIK
B3: the “maximal inhibition in pSTAT3 assay” value in experiment [1] was determined as 100%. For the same molecule, the results for the “IC50 in pSTAT3 assay” value (in experiment [2]; with recombinant human IL-21 [3]) were 45.9 pM and 13.6 pM, respectively.

B4: murine monoclonal antibody 19E3 (antibody, V domains shown)
VH: QVQLQQPGSELVMPGASVKMSCKASGYIFTDYWMHWVKQRPGQGLEWIGTIDPSDNYTIYSQNFKGKATLTVDESSSTAYMLLSSLTSEDSAVYFCARYGFAMDYWGQGTSVTVSS
VL: DIQLTQTTSSLSASLGDRVTISCRASQDISNFLNWYQQTPDGTVKLLIYYTSRLHSGVPSRFSGSGSGTDYSLTISNLEQEDIATYFCQQGHTLPRTFGGGTKLEIK
notes: also called 19E3.1
Take B4: the “inhibition of IgG production by human B cells” value (in experiment [4]; in the experiment with recombinant human IL-21 [5]) was > 99% in each case. Further, in the experiment with recombinant human IL-21 [5], the “IC50 of IL-21-induced proliferation of human naive CD4+ T cells (ATP, day 4)” value was found to be 0.061 nM. Moreover, the “maximal inhibition in pSTAT3 assay” value in experiment [1] was determined as 100%. Also, the “IC50 in PC differentiation assay (2 nM IL-21)” value in experiment [6] is 0.775 nM; with recombinant human IL-21 [7], 1.53 nM. In addition, the “IC50 in NK-92 cell assay (IFNγ, 200 pM IL-21)” value (“IC50 in NK-92 cell assay” below) in experiment [8] is 37 pM; in the experiment with recombinant human IL-21 [9], 41 pM. The binding result with IL-7, with IL-2 and in the experiment with IL-4 was “no binding” in each case. In addition, the “IC50 in pSTAT3 assay” value amounted to 5.99 pM in experiment [2] and 3.15 pM with recombinant human IL-21 [3].

B5: K44VHa6-N56Q (antibody, IgG1, V domains shown)
VH: QVQLVQSGAEVKKPGASVKVSCKASGYTFTDYWMHWVRQAPGQGLEWMGTIDPSDQYTIYSQNFKGRVTMTVDESTSTVYMELSSLRSEDTAVYYCARYGFAMDYWGQGTLVTVSS
VL: DIQLTQSPSSLSASVGDRVTITCRASQDISNFLNWYQQKPGKAVKLLIYYTSRLHSGVPSRFSGSGSGTDYTLTISSLQPEDFATYYCQQGHTLPRTFGGGTKVEIKR
Take B5: the “maximal inhibition in pSTAT3 assay” value in [1] worked out at 100%. In addition, the results for the “IC50 in PC differentiation assay (2 nM IL-21)” value (in [6]; in the experiment with recombinant human IL-21 [7]) were 0.659 nM and 0.573 nM, respectively. The “IC50 in NK-92 cell assay” value came to 60.3 pM in experiment [8] and 54.8 pM in the experiment with recombinant human IL-21 [9]. In addition, the equilibrium dissociation constant (Kd) in the experiment with recombinant human IL-21 [10] came to 0.000245 nM. The binding result with IL-7, with IL-2 and in the experiment with IL-4 was “no binding” each time. Moreover, the “IC50 in pSTAT3 assay” value came to 9.75 pM in experiment [2] and 5.5 pM with recombinant human IL-21 [3].

B6: K2Ha-N56Q (antibody, human IgG1, kappa, V domains shown)
VH: QVQLVQSGAEVKKPGASVKVSCKASGYTFTDYWMHWVRQAPGQGLEWMGTIDPSDQYTIYSQNFKGRVTMTRDTSTSTVYMELSSLRSEDTAVYYCARYGFAMDYWGQGTLVTVSS
VL: DIQLTQSPSSLSASVGDRVTITCRASQDISNFLNWYQQKPGKAVKLLIYYTSRLHSGVPSRFSGSGSGTDYTLTISSLQPEDFATYFCQQGHTLPRTFGGGTKVEIKR
Regarding B6, the “maximal inhibition in pSTAT3 assay” value in [1] was 100%. For the same molecule, the results for the “IC50 in PC differentiation assay (2 nM IL-21)” value (in [6]; with recombinant human IL-21 [7]) were 1.32 nM and 0.618 nM, respectively. For the same molecule, the “IC50 in NK-92 cell assay” value turned out to be 83.4 pM in experiment [8] and 99 pM with recombinant human IL-21 [9]. Further, in the experiment with recombinant human IL-21 [10], the Kd came out at 0.000403 nM. The binding result in the experiment with IL-7, in the experiment with IL-2 and with IL-4 was “no binding” throughout. In addition, the “IC50 in pSTAT3 assay” value in experiment [2] worked out at 15.6 pM; in the experiment with recombinant human IL-21 [3] it was 18.7 pM.

B7: murine monoclonal antibody 8B6 (antibody, V domains shown)
VH: EVQLVESGGGSVKPGGSLKLSCAASGLTFSHYYMYWVRQTPEKRLEWVAIISDGGDYTHYSDSVKGRFTISRDNAKNNLYLQMSSLQSEDTAMYYCAGDYGYGYEGWFAYWGQGTLVTVST
VL: DIVMTQSQKFMSTSVGDRVSVTCKASQNVDTYVAWYQQKPGQSPKALIYSTSYRYSGVPDRFTGSGSGTDFTLTISNVQSEDLAEYFCQQYNSYPWTFGGGTKLEIK
notes: also called 8B6.1
Regarding B7, the “maximal inhibition in pSTAT3 assay” value in [1] amounted to 100%. Besides, the “IC50 in PC differentiation assay (2 nM IL-21)” value in experiment [6] was 8.9 nM; with recombinant human IL-21 [7], > 200 nM. Also, the “IC50 in NK-92 cell assay” value in experiment [8] worked out at 771 pM; in the experiment with recombinant human IL-21 [9] it was 944 pM. The binding result with IL-7, in the experiment with IL-15, with IL-2 and in the experiment with IL-4 was “no binding” in each case. Further, the figures for the “IC50 in pSTAT3 assay” value (in experiment [2]; in the experiment with recombinant human IL-21 [3]) were 228 pM and 115 pM, respectively.

B8: murine monoclonal antibody 9H10 (antibody, V domains shown)
VH: EVQLQQFGAEVVKPGASVKMSCKASGYTFTDYNMNWVKQSHEKSLEWIGDIHPKFHSTNYNQKFKGKATLTIDTSSSTAYMELRNLTSEDTAVYYCARVGNYVYFVMDYWGQGTSVTVSS
VL: SIVMTQTPKFLLVSAGDRVTITCKASQSVSNDVAWYQQKPGQSPKLLIYYASNRYTGVPDRFSGSGYGTDFTFTISTVQAEDLAVYFCQQDYTSPWTFGGGTKLEIK
notes: also called 9H10.1
Regarding B8, the “maximal inhibition in pSTAT3 assay” value in experiment [1] was 100%. Also, the “IC50 in PC differentiation assay (2 nM IL-21)” value turned out to be 29.8 nM in experiment [6] and 116 nM in the experiment with recombinant human IL-21 [7]. Also, the “IC50 in NK-92 cell assay” value in experiment [8] worked out at 3.43 nM; in the experiment with recombinant human IL-21 [9] it was 20.2 nM. In the experiment with recombinant human IL-21 [10], the dissociation constant (Kd) worked out at 0.108 nM. The binding result with IL-7, with IL-2 and in the experiment with IL-4 was “no binding” in each case. Further, the “IC50 in pSTAT3 assay” value was 160 pM in experiment [2] and 328 pM in the experiment with recombinant human IL-21 [3].

The record behind these values is patent US20200164069A1 (BOSTON PHARMACEUTICALS, published 2020).
